Data taken from article PMC4339890 (Nature Communications, 2015).

Molecular target: the molecule itself
Experiment: not stated; PAXX 1-145 in solution (Supplementary Fig. 2)

B1: PAXX N-terminal fragment (1–145) (domain or fragment, human, UniProt Q9BUH6 1-145, looked up)
chain: MDPLSPPLCTLPPGPEPPRFVCYCEGEESGEGDRGGFNLYVTDAAELWSTCFTPDSLAALKARFGLSAAEDITPRFRAACEQQAVALTLQEDRASLTLSGGPSALAFDLSKVPGPEAAPRLRALTLGLAKRVWSLERRLAAAEET
notes: A SeMet-labelled double mutant L57M/L105M of the same limits was used for phasing only; source: E. coli (pETDuet-1), purified (nickel beads, HiTrap Q, Superdex 200 gel filtration)
  stoichiometry N: 2
